Each substance was assayed against 160 kd cell surface receptor (human (endogenous in MDA.MB.231 and 184A1)) (assay: radioligand binding; competition: 5 nM 125I-labelled TAA.62(T) on MDA.MB.231 monolayers with or without unlabelled peptide (cells preincubated with the growth factors), 2 h at 4 C, EBSS with 20 mM Hepes pH 7.4 and 1% BSA; specific binding as % of control).

| specific binding of 125I-TAA.62(T) (% of control) | Substance |
| --- | --- |
| 98 % of control | transforming growth factor-alpha (from UniProt P01135 40-89) (ligand) |
| 97 % of control | insulin-like growth factor (from UniProt P05019 49-118) (ligand) |
| 102 % of control | epidermal growth factor (from UniProt P01133 971-1023) (ligand) |
| 95 % of control | transforming growth factor-beta (ligand) |

Source: paper PMC1977871
